Results published in publication PMC5552956, “The PAS domains of the major sporulation kinase in Bacillus subtilis play a role in tetramer formation that is essential for the autokinase activity” (MicrobiologyOpen, 2017).
Values joined by “and” are separate entries in the source; they are usually repeats but may differ in a detail not shown here. Equal entries are not always repeated.

What was measured:
[1] = target: KinAN-GFP (Bacillus subtilis); assay: cross-linking; cell extracts of B. subtilis lacking native kinA (LB, 10 μmol/L IPTG) incubated with or without bis-maleimidohexane (BMH, sulfhydryl-specific); SDS-PAGE (10%), immunoblot with anti-GFP antibodies; sizes from a regression line of mass standards
[2] = target: KinAN-GFP-his6 (Bacillus subtilis); assay: native gel or EMSA; blue native PAGE (4-16% gradient gel) of Ni-NTA eluates, immunoblot with anti-GFP antibodies; sizes from a regression line of NativeMark standards
[3] = target: KinA^ΔPAS-A-GFP (Bacillus subtilis); assay: cross-linking; cell extracts of B. subtilis lacking native kinA (LB, 10 μmol/L IPTG) incubated with or without bis-maleimidohexane (BMH, sulfhydryl-specific); SDS-PAGE (10%), immunoblot with anti-GFP antibodies; sizes from a regression line of mass standards
[4] = target: PAS-BC-GFP-his6 (Bacillus subtilis); assay: native gel or EMSA; blue native PAGE (4-16% gradient gel) of Ni-NTA eluates, immunoblot with anti-GFP antibodies; sizes from a regression line of NativeMark standards
[5] = target: the molecule itself; assay: cross-linking; cell extracts of B. subtilis lacking native kinA (LB, 10 μmol/L IPTG) incubated with or without bis-maleimidohexane (BMH, sulfhydryl-specific); SDS-PAGE (10%), immunoblot with anti-GFP antibodies; sizes from a regression line of mass standards

KinAN-GFP (domain or fragment) showed a stoichiometry N [1] of 4.

In the case of KinAN-GFP-his6 (domain or fragment), the stoichiometry N [2] is reported as 4 and 2.

KinA^ΔPAS-A-GFP (domain or fragment) was tested, and the stoichiometry N [3] was 4.

PAS-BC-GFP-his6 (domain or fragment) was tested, and the stoichiometry N [4] was 4 and 2.

B1: KinA^ΔPAS-AB-GFP (domain or fragment, Bacillus subtilis, UniProt P16497 259-606, looked up)
chain: QTILQKSRERYQLLIQNSIDTIAVIHNGKWVFMNESGISLFEAATYEDLIGKNIYDQLHPCDHEDVKERIQNIAEQKTESEIVKQSWFTFQNRVIYTEMVCIPTTFFGEAAVQVILRDISERKQTEELMLKSEKLSIAGQLAAGIAHEIRNPLTAIKGFLQLMKPTMEGNEHYFDIVFSELSRIELILSELLMLAKPQQNAVKEYLNLKKLIGEVSALLETQANLNGIFIRTSYEKDSIYINGDQNQLKQVFINLIKNAVESMPDGGTVDIIITEDEHSVHVTVKDEGEGIPEKVLNRIGEPFLTTKEKGTGLGLMVTFNIIENHQGVIHVDSHPEKGTAFKISFPKK
notes: KinA of Bacillus subtilis without PAS-A and PAS-B; 'our autokinase-deficient PAS-AB mutant (aa 259-606)'; also called MF3356; source: B. subtilis lacking the native kinA gene, IPTG-inducible promoter (10 μmol/L IPTG, LB), in cell extract
In the case of B1, the “stoichiometry N” value [5] is reported as 2.

B2: full-length KinA-GFP (natural protein, Bacillus subtilis, UniProt P16497 1-606, looked up)
chain: MEQDTQHVKPLQTKTDIHAVLASNGRIIYISANSKLHLGYLQGEMIGSFLKTFLHEEDQFLVESYFYNEHHLMPCTFRFIKKDHTIVWVEAAVEIVTTRAERTEREIILKMKVLEEETGHQSLNCEKHEIEPASPESTTYITDDYERLVENLPSPLCISVKGKIVYVNSAMLSMLGAKSKDAIIGKSSYEFIEEEYHDIVKNRIIRMQKGMEVGMIEQTWKRLDGTPVHLEVKASPTVYKNQQAELLLLIDISSRKKFQTILQKSRERYQLLIQNSIDTIAVIHNGKWVFMNESGISLFEAATYEDLIGKNIYDQLHPCDHEDVKERIQNIAEQKTESEIVKQSWFTFQNRVIYTEMVCIPTTFFGEAAVQVILRDISERKQTEELMLKSEKLSIAGQLAAGIAHEIRNPLTAIKGFLQLMKPTMEGNEHYFDIVFSELSRIELILSELLMLAKPQQNAVKEYLNLKKLIGEVSALLETQANLNGIFIRTSYEKDSIYINGDQNQLKQVFINLIKNAVESMPDGGTVDIIITEDEHSVHVTVKDEGEGIPEKVLNRIGEPFLTTKEKGTGLGLMVTFNIIENHQGVIHVDSHPEKGTAFKISFPKK
notes: Sporulation kinase KinA, Bacillus subtilis (strains derived from PY79), full length; Tetramer by BMH cross-linking; also called MF3352; source: B. subtilis lacking the native kinA gene, IPTG-inducible promoter (10 μmol/L IPTG, LB), in cell extract
B2 was tested, and the “stoichiometry N” value [5] was 4.
